*1 amine or outer side, *2 acyl side, *3 side chain or, on linkers, in order; H or OH if unused. Where no end group is shown, it is not given here. Side-chain parts run from the residue outwards. [ ]: non-standard residue; d: D form. The star is where a group is joined. αMePhe(2-F) = C[C@](N)(Cc1ccccc1F)C(=O)O; γGlu = O=C(O)[C@H](CCC(=O)[*:2])N[*:1]; C14 diacid = O=C(O)CCCCCCCCCCCCC(=O)*; αMeY = C[C@](N)(Cc1ccc(O)cc1)C(=O)O; 4Pal = N[C@@H](Cc1ccncc1)C(=O)O; αMeL = CC(C)C[C@](C)(N)C(=O)O; Lauroyl = CCCCCCCCCCCC(=O)*; Orn = NCCC[C@H](N)C(=O)O; AEEA = NCCOCCOCC(=O)O; Aib = CC(C)(N)C(=O)O

The target of one test is T1, human GIP receptor (human, UniProt P48546 22-466).
T1 construct: whole, on cells; also called hGIPR; human glucose-dependent insulinotropic polypeptide receptor
T1 sequence (looked up): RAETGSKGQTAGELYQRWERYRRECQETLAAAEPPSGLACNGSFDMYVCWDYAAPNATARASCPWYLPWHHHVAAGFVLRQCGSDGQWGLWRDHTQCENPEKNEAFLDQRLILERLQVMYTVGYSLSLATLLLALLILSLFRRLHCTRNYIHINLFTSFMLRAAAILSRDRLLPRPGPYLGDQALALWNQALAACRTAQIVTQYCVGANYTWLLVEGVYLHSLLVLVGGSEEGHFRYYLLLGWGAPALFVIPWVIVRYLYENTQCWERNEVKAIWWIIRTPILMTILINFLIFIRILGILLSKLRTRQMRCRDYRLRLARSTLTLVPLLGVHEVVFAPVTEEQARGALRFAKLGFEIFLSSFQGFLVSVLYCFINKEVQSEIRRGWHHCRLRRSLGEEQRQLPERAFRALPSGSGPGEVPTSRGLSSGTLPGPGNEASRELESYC
Description: SPA competition vs [125I]-GIP, hGIPR membranes.

The target of another test is T2, human glucagon receptor (human, UniProt P47871 26-477).
T2 construct: whole, on cells; also called hGCGR; hGcgR
As to the kind of experiment: SPA competition vs [125I]-Gcg, hGcgR membranes.

A further test has as its target T3, human GLP-1 receptor (human, UniProt P43220 24-463).
T3 construct: whole, on cells; also called hGLP-1R; human glucagon-like peptide-1 receptor
Description: SPA competition vs [125I]-GLP-1, hGLP-1R membranes. The method, boiled down:
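Kᵢ values are geometric means (SEM) over replicates run on separate days, derived from IC₅₀ of four-parameter curve fits. Buffer: HEPES 25 mM pH 7.4 with CaCl₂ 2.5 mM, MgCl₂ 1 mM, bacitracin 0.1%, TWEEN-20 0.003%, EDTA-free protease inhibitors.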

T2 sequence (P47871 26-477): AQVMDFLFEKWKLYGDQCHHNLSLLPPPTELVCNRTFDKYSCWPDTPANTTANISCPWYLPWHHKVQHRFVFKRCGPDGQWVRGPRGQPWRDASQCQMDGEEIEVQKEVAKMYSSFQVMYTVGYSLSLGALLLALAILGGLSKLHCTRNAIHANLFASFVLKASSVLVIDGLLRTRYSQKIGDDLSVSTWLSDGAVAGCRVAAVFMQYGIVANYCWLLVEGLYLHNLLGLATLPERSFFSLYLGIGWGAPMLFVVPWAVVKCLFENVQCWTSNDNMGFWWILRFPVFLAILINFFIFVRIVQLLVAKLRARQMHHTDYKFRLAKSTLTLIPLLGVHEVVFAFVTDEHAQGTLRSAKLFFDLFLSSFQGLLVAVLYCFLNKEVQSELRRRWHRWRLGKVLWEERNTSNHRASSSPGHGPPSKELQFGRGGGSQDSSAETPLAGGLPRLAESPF

B1: Y-Aib-EGT-αMeF(2F)-TSDV-Aib-I-αMeL-LD-Orn … (peptide)
peptide: Y[Aib]EGT[αMePhe(2-F)]TSDV[Aib]I[αMeL]LD[Orn]QAQ[Aib][Orn]FIK([AEEA-AEEA-γGlu-C14 diacid])[αMeY]LIK([AEEA-AEEA-γGlu-C14 diacid])GGPSSGAPPPS-NH2
modifications: N-terminus assumed
SMILES: CC[C@H](C)[C@H](NC(=O)[C@H](CC(C)C)NC(=O)[C@](C)(Cc1ccc(O)cc1)NC(=O)[C@H](CCCCNC(=O)COCCOCCNC(=O)COCCOCCNC(=O)CC[C@H](NC(=O)CCCCCCCCCCCCC(=O)O)C(=O)O)NC(=O)[C@@H](NC(=O)[C@H](Cc1ccccc1)NC(=O)[C@H](CCCN)NC(=O)C(C)(C)NC(=O)[C@H](CCC(N)=O)NC(=O)[C@H](C)NC(=O)[C@H](CCC(N)=O)NC(=O)[C@H](CCCN)NC(=O)[C@H](CC(=O)O)NC(=O)[C@H](CC(C)C)NC(=O)[C@](C)(CC(C)C)NC(=O)[C@@H](NC(=O)C(C)(C)NC(=O)[C@@H](NC(=O)[C@H](CC(=O)O)NC(=O)[C@H](CO)NC(=O)[C@@H](NC(=O)[C@](C)(Cc1ccccc1F)NC(=O)[C@@H](NC(=O)CNC(=O)[C@H](CCC(=O)O)NC(=O)C(C)(C)NC(=O)[C@@H](N)Cc1ccc(O)cc1)[C@@H](C)O)[C@@H](C)O)C(C)C)[C@@H](C)CC)[C@@H](C)CC)C(=O)N[C@@H](CCCCNC(=O)COCCOCCNC(=O)COCCOCCNC(=O)CC[C@H](NC(=O)CCCCCCCCCCCCC(=O)O)C(=O)O)C(=O)NCC(=O)NCC(=O)N1CCC[C@H]1C(=O)N[C@@H](CO)C(=O)N[C@@H](CO)C(=O)NCC(=O)N[C@@H](C)C(=O)N1CCC[C@H]1C(=O)N1CCC[C@H]1C(=O)N1CCC[C@H]1C(=O)N[C@@H](CO)C(N)=O
For B1, the Ki was found to be 0.0314 nM in the test with human GIP receptor, 116 nM with human glucagon receptor and 0.367 nM with human GLP-1 receptor.

B2: Y-Aib-EGT-αMeF(2F)-TSDY-Aib-I-αMeL-LD-Orn-IAQ-Aib-Orn-FIK((2-[2-(2-Amino-ethoxy)-ethoxy]-acetyl)3-(γ-Glu)--(10-(4-carboxyphenoxy)decanoyl))-αMeY-LIK((2-[2-(2-Am … (peptide)
peptide: YXEGTXTSDYXIXLDXIAQXXFIKXLIKGGPSSGAPPPS
modifications: Aib2, αMeF(2F)6, Aib11, αMeL13, Orn16, Aib20, Orn21, K24(Z1), αMeY25, K28(Z1), C-term NH2; Z1=AEEA3-(γ-Glu)-(10-(4-carboxyphenoxy)decanoyl)
For B2, the Ki was determined as 0.0266 nM with human GIP receptor, 20.1 nM in the test with human glucagon receptor and 0.326 nM in the test with human GLP-1 receptor.

B3: Y-Aib-EGT-αMeF(2F)-TSDY-Aib-I-αMeL-LD-Orn-IAQ-Aib-Orn-FIK((2-[2-(2-Amino-ethoxy)-ethoxy]-acetyl)3-(γ-Glu)-CO-(CH2)12-CO2H)-αMeY-LIK((2-[2-(2-Amino-ethoxy)-ethox … (peptide)
peptide: YXEGTXTSDYXIXLDXIAQXXFIKXLIKGGPSSGAPPPS
modifications: Aib2, αMeF(2F)6, Aib11, αMeL13, Orn16, Aib20, Orn21, K24(Z1), αMeY25, K28(Z1), C-term NH2; Z1=AEEA3-(γ-Glu)-CO-(CH2)12-CO2H
With B3, the Ki came to 0.0406 nM with human GIP receptor, 49.7 nM in the test with human glucagon receptor and 0.407 nM with human GLP-1 receptor.
Taken in the same sequence, the figures for Y[Aib]EGT[αMePhe(2-F)]TSDK([AEEA-AEEA-γGlu-Lauroyl])[Aib]I[αMeL]LD[Orn]K([AEEA-AEEA-γGlu-Lauroyl])AQ[Aib][4Pal]FI[dE][αMeY]LIEGGPSSGAPPPS-NH2 were 0.0152 nM, 51.8 nM and 0.156 nM.

B4: Y-Aib-EGT-αMeF(2F)-TSD-4Pal-Aib-I-αMeL-LD-Orn-K((2-[2-(2-Amino-ethoxy)-ethoxy]-acetyl)2-(γ-Glu)-CO-(CH2)10-CH3)AQ-Aib-Orn-FI-(D-Glu)-αMeY-LIEGGPSSGAPPPSK((2-[2- … (peptide)
peptide: YXEGTXTSDXXIXLDXKAQXXFIXXLIEGGPSSGAPPPSK
modifications: Aib2, αMeF(2F)6, 4Pal10, Aib11, αMeL13, Orn16, K17(Z1), Aib20, Orn21, D-Glu24, αMeY25, K40(Z1), C-term NH2; Z1=AEEA2-(γ-Glu)-CO-(CH2)10-CH3
Take B4: the Ki turned out to be 0.0174 nM with human GIP receptor, 3.59 nM with human glucagon receptor and 0.0684 nM in the test with human GLP-1 receptor.

B5: Y-Aib-EGT-αMeF(2F)-TSD-4Pal-Aib-I-αMeL-LD-Orn-K((2-[2-(2-Amino-ethoxy)-ethoxy]-acetyl)3-(γ-Glu)-CO-(CH2)10-CH3)AQ-Aib-EFI-(D-Glu)-αMeY-LIEGGPSSGAPPPSK((2-[2-(2- … (peptide)
peptide: YXEGTXTSDXXIXLDXKAQXEFIXXLIEGGPSSGAPPPSK
modifications: Aib2, αMeF(2F)6, 4Pal10, Aib11, αMeL13, Orn16, K17(Z1), Aib20, D-Glu24, αMeY25, K40(Z1), C-term NH2; Z1=AEEA3-(γ-Glu)-CO-(CH2)10-CH3
As for B5, the figures for the Ki with human GIP receptor, with human glucagon receptor and with human GLP-1 receptor were 0.0206 nM, 16 nM and 0.219 nM, respectively.

B6: Y-Aib-EGT-αMeF(2F)-TSD-4Pal-Aib-I-αMeL-LD-Orn-K((2-[2-(2-Amino-ethoxy)-ethoxy]-acetyl)3-(γ … (peptide)
peptide: YXEGTXTSDXXIXLDXKAQXXFIXXLIEGGPSSGAPPPSK
modifications: Aib2, αMeF(2F)6, 4Pal10, Aib11, αMeL13, Orn16, K17(Z1), Aib20, Orn21, D-Glu24, αMeY25, K40(Z1), C-term NH2; Z1=AEEA3-(γ-Glu)-CO-(CH2)10-CH3
In the case of B6, the inhibitory constant (Ki) with human GIP receptor is 0.0091 nM; with human glucagon receptor, 14.4 nM; with human GLP-1 receptor, 0.122 nM.

B7: Y-Aib-EGT-αMeF(2F)-TSDK((2-[2-(2-Amino-ethoxy)-ethoxy]-acetyl)2-(γ-Glu)-CO-(CH2)10-CH3)-Aib-I-αMeL-LD-Orn-K((2-[2-(2-Amino-ethoxy)-ethoxy]-acetyl)2-(γ-Glu)-CO-( … (peptide)
peptide: YXEGTXTSDKXIXLDXKAQXXFIXXLIEGGPSSGAPPPS
modifications: Aib2, αMeF(2F)6, K10(Z1), Aib11, αMeL13, Orn16, K17(Z1), Aib20, Orn21, D-Glu24, αMeY25, C-term NH2; Z1=AEEA2-(γ-Glu)-CO-(CH2)10-CH3
On to B7, for which the values for the Ki in the test with human GIP receptor, with human glucagon receptor and in the test with human GLP-1 receptor were 0.0214 nM, 58.4 nM and 0.167 nM, respectively.

B8: Y-Aib-EGT-αMeF(2F)-TSD-4Pal-Aib-I-αMeL-LD-Orn-QAQ-Aib-Orn-FIK(PEG3-(γ-Glu)-(10-(4-carboxyphenoxy)decanoyl))-αMeY-LIK(PEG3-(γ-Glu)-(10-(4-carboxyphenoxy)decanoyl … (peptide)
peptide: YXEGTXTSDXXIXLDXQAQXXFIKXLIKGGPSSGAPPPS
modifications: Aib2, αMeF(2F)6, 4Pal10, Aib11, αMeL13, Orn16, Aib20, Orn21, K24(Z1), αMeY25, K28(Z1), C-term NH2; Z1=PEG3-(γ-Glu)-(10-(4-carboxyphenoxy)decanoyl)
On to B8, for which the Ki was 0.0102 nM in the test with human GIP receptor, 87.5 nM with human glucagon receptor and 0.125 nM in the test with human GLP-1 receptor.

B9: Y-Aib-EGT-αMeF(2F)-TSD-4Pal-Aib-I-αMeL-LD-Orn-QAQ-Aib-Orn-FIK((2-[2-(2-Amino-ethoxy)-ethoxy]-acetyl)-(γ-Glu)-(10-(4-carboxyphenoxy)decanoyl))-αMeY-LIK((2-[2-(2- … (peptide)
peptide: YXEGTXTSDXXIXLDXQAQXXFIKXLIKGGPSSGAPPPS
modifications: Aib2, αMeF(2F)6, 4Pal10, Aib11, αMeL13, Orn16, Aib20, Orn21, K24(Z1), αMeY25, K28(Z1), C-term NH2; Z1=AEEA-(γ-Glu)-(10-(4-carboxyphenoxy)decanoyl)
Consider B9, for which the figures for the Ki with human GIP receptor, in the test with human glucagon receptor and in the test with human GLP-1 receptor were 0.0183 nM, 54.5 nM and 0.143 nM, respectively.

B10: Y-Aib-EGT-αMeF(2F)-TSD-4Pal-SI-αMeL-LD-Orn-K((2-[2-(2-Amino-ethoxy)-ethoxy]-acetyl)2-(γ-Glu)-CO-(CH2)14-CH3)AQ-Aib-EFI-(D-Glu)-αMeY-LIEGGK((2-[2-(2-Amino-ethoxy … (peptide)
peptide: YXEGTXTSDXSIXLDXKAQXEFIXXLIEGGKSSGAPPPS
modifications: Aib2, αMeF(2F)6, 4Pal10, αMeL13, Orn16, K17(Z1), Aib20, D-Glu24, αMeY25, K31(Z1), C-term NH2; Z1=AEEA2-(γ-Glu)-CO-(CH2)14-CH3
Turning to B10, the Ki was determined as 0.0501 nM in the test with human GIP receptor, 1.46 nM with human glucagon receptor and 0.362 nM in the test with human GLP-1 receptor.

B11: Y-Aib-EGT-αMeF(2F)-TSD-4Pal-Aib-I-αMeL-LD-Orn-QAQ-Aib-Orn-FIK((2-[2-(2-Amino-ethoxy)-ethoxy]-acetyl)-Ahx-(γ-Glu)-(10-(4-carboxyphenoxy)decanoyl))-αMeY-LIK((2-[2 … (peptide)
peptide: YXEGTXTSDXXIXLDXQAQXXFIKXLIKGGPSSGAPPPS
modifications: Aib2, αMeF(2F)6, 4Pal10, Aib11, αMeL13, Orn16, Aib20, Orn21, K24(Z1), αMeY25, K28(Z1), C-term NH2; Z1=AEEA-Ahx-(γ-Glu)-(10-(4-carboxyphenoxy)decanoyl)
Turning to B11, the figures for the Ki with human GIP receptor, in the test with human glucagon receptor and with human GLP-1 receptor were 0.013 nM, 71.8 nM and 0.123 nM, respectively.

B12: Y-Aib-EGT-αMeF(2F)-TSD-4Pal-Aib-I-αMeL-LD-Orn-QAQ-Aib-Orn-FIK((2-[2-(2-Amino-ethoxy)-ethoxy]-acetyl)-Ahx-(γ-Glu)-CO-(CH2)12-CO2)-αMeY-LIK((2-[2-(2-Amino-ethoxy) … (peptide)
peptide: YXEGTXTSDXXIXLDXQAQXXFIKXLIKGGPSSGAPPPS
modifications: Aib2, αMeF(2F)6, 4Pal10, Aib11, αMeL13, Orn16, Aib20, Orn21, K24(Z1), αMeY25, K28(Z1), C-term NH2; Z1=AEEA-Ahx-(γ-Glu)-CO-(CH2)12-CO2 (so in the source)
As to B12, the Ki with human GIP receptor is 0.0133 nM; with human glucagon receptor, 243 nM; in the test with human GLP-1 receptor, 0.201 nM.

The term Ki denotes the dissociation constant of the complex between target and ligand, obtained from inhibition or displacement. Higher therefore signals lower affinity.

Values taken from patent US20230265151A1, “GIP/GLP1 CO-AGONIST COMPOUNDS” (priority 2020, published 2023).
